# Measured values taken from patent US20130115676.
# Key:
# Assay in all cases: cleavage_in_vitro
# [1] = system: T1, NcoI (Nocardia corallina); conditions: NEB1, 10 mM MgCl2, 37 C
# T1 sequence: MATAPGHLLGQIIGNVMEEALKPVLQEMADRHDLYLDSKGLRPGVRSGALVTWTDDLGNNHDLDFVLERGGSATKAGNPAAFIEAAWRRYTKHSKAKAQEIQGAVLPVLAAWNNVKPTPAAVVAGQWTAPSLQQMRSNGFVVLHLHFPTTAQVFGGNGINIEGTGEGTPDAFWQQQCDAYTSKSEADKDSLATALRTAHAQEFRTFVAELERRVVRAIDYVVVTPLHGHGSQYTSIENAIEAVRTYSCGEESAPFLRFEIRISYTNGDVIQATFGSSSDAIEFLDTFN
# [2] = target: T2, BamHI-HF E163A/E167T (Bacillus amyloliquefaciens) (UniProt P23940); conditions: NEB4, 10 mM Mg acetate, 37 C
# T2 sequence: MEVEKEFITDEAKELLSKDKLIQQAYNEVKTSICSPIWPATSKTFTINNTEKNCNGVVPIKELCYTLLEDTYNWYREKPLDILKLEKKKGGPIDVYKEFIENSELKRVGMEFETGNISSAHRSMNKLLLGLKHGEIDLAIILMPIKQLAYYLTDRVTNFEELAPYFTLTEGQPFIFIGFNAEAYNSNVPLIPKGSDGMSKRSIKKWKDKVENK
# [3] = system: T3, SspI (Sphaerotilus species); conditions: NEB1, 10 mM MgCl2, 37 C
# T3 sequence: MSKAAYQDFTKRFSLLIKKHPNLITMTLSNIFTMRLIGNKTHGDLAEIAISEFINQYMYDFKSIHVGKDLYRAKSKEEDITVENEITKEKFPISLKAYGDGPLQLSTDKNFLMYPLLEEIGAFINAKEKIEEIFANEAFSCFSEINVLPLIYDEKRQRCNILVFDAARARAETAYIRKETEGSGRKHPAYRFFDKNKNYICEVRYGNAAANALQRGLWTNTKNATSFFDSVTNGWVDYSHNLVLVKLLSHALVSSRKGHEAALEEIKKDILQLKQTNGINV
# [4] = system: T4, BspQI (Bacillus sphaericus); conditions: NEB3, 10 mM MgCl2, 50 C
# T4 sequence: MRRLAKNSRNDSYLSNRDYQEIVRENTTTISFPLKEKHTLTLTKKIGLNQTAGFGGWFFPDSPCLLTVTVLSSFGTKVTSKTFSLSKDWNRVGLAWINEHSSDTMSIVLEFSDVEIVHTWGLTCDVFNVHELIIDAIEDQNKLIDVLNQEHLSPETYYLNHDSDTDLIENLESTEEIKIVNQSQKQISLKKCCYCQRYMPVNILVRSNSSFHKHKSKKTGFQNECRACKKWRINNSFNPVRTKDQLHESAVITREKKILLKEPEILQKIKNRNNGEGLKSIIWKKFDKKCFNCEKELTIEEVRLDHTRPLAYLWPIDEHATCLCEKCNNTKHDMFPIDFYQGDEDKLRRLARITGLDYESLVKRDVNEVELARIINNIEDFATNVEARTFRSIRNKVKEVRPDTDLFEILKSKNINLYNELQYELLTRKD
# [5] = target: T5, HpaI (Haemophilus parainfluenzae) (UniProt P29537); conditions: NEB4, 10 mM Mg acetate, 37 C
# T5 sequence: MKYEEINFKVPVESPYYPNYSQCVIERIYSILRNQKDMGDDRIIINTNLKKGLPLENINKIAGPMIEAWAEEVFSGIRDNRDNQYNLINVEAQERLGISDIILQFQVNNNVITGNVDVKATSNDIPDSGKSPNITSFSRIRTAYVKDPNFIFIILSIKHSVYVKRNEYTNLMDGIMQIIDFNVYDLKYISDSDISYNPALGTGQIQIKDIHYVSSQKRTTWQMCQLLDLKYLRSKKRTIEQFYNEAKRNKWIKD
# BsmBI = conditions: NEB3, 10 mM MgCl2, 55 C
# BsmBI-HF N185Y/R232A = conditions: NEB4, 10 mM Mg acetate, 55 C; listed as BsmBI
# [6] = target: T6, ScaI (Streptomyces caespitosus) (UniProt O52691); conditions: NEB2, 10 mM MgCl2, 37 C; printed as 1/8
# T6 sequence: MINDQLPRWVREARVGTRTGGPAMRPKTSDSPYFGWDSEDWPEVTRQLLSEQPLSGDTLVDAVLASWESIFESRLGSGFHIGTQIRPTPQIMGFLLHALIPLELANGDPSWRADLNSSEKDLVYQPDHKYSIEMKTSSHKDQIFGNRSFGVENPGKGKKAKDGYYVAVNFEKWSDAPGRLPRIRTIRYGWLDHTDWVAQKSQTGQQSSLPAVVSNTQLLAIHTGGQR
# [7] = system: T7, SphI-HF K100A (Streptomyces phaeochromogenes); conditions: NEB4, 10 mM Mg acetate, 37 C
# T7 sequence: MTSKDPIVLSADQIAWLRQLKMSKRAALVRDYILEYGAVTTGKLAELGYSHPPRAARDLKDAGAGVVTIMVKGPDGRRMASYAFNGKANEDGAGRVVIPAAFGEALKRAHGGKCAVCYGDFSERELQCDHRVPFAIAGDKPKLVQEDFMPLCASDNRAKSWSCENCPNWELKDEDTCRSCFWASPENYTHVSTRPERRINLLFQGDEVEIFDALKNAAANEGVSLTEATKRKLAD
# [8] = target: T8, PstI-HF D91A (Providencia stuartii 164) (UniProt P00640); conditions: NEB4, 10 mM Mg acetate, 37 C
# T8 sequence: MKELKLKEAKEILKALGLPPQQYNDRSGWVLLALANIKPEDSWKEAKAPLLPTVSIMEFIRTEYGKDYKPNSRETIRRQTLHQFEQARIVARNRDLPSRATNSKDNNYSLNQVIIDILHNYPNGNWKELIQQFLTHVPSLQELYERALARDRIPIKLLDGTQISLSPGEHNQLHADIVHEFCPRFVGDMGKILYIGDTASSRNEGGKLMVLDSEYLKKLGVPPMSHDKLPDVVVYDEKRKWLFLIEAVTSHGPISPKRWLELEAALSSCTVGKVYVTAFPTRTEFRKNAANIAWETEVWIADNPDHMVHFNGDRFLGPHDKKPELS
# [9] = target: EcoRI-HF K62E (Escherichia coli RY13) (UniProt P00642); conditions: NEB4, 10 mM Mg acetate, 37 C
substance,measurement,setting,value
lambda DNA,activity (fidelity index),[1],120
same,activity (fidelity index),[2],> 4000
same,activity (fidelity index),[3],64
same,activity (fidelity index),[4],32
same,activity (fidelity index),[5],16
same,activity (fidelity index),BsmBI,120
same,activity (fidelity index),BsmBI-HF N185Y/R232A,> 500
same,activity (fidelity index),[6],0.125
same,activity (fidelity index),[7],8000
same,activity (fidelity index),[8],4000
same,activity (fidelity index),[9],16000
